{"source": "patent US20140287985A1", "about": "“NOVEL USES OF ELAFIN” (Proteo Biotech AG, priority 2010, published 2014)", "key": {"[1]": {"assay": "Period of postoperative intensive care (ICU) after esophagectomy", "type": "in vivo, human", "conditions": "200 mg i.v.", "source_text": "After surgery all patients were routinely admitted to the intensive care unit (ICU) at least overnight. Patients were maintained in the ICU for as long as the treating physician considered necessary."}, "[2]": {"assay": "Stability of Elafin to sterilization, quantified by HPLC", "type": "physicochemical", "method": "(§1) Lyophilized samples of 300 μg Elafin were sterilized either by heat sterilization or by ethylene oxide sterilization in a suitable standard sterile packing material. After sterilization, samples were dissolved in 300 μl distilled water. Elafin was quantified by HPLC (reverse phase C8-separation medium) and by determination of elastase inhibitory activity."}, "IL-6": {"tested_on": "IL-6", "assay": "Serum IL-6 2 h after esophagectomy (immunoassay)", "type": "in vivo, human", "conditions": "200 mg i.v.; 2 h postoperatively; versus placebo", "method": "Blood samples were taken 2 h after finishing surgery and serum was prepared. The serum level of IL-6 was measured using a routine immunoassay (“Immulite, IL-6”, available from Siemens Medical Solution Diagnostics)."}, "[3]": {"assay": "Plasma Elafin levels (ELISA) in patients undergoing esophagectomy", "type": "in vivo, human", "method": "Blood samples were removed at the intervals indicated and plasma was prepared and stored frozen at −20° C. Plasma Elafin levels were measured using an ELISA."}, "serum elastase [4]": {"biological_target": "T1, serum elastase (Homo sapiens, UniProt P08246)", "T1 construct": "from tissue; host or cells: human serum", "T1 sequence (P08246 30-267)": "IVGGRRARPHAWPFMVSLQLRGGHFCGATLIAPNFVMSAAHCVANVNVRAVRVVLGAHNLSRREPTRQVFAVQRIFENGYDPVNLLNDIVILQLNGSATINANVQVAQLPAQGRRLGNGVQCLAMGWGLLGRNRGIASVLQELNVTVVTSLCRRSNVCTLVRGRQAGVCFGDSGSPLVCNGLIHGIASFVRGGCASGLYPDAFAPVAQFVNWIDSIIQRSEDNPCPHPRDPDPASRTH", "assay": "Serum elastase activity after subcutaneous injection in a healthy human volunteer", "type": "in vivo", "conditions": "100 mg subcutaneously; within the first 30 min-4 hours", "method": "100 mg of Elafin in physiological saline were injected subcutaneously into the abdomen of a healthy human volunteer. Blood samples were removed at the times indicated in FIG. 10 and serum prepared and stored at −20° C."}, "elastase": {"tested_on": "elastase", "assay": "Stability of Elafin to sterilization, elastase inhibitory activity", "type": "biochemical", "method": "as §1"}, "rats": {"tested_on": "rats", "assay": "Biocompatibility: 14 days continuous intravenous infusion in rats", "type": "in vivo", "method": "Rats were treated with up to 100 mg elafin/kg/day over a period of 14 days by continuous intravenous infusion."}, "Pseudomanae aeruginosa": {"tested_on": "Pseudomanae aeruginosa", "conditions": "cited from earlier work"}, "serum elastase [5]": {"biological_target": "T1, serum elastase", "assay": "Serum elastase activity (photometric assay) in patients undergoing esophagectomy", "type": "in vivo", "conditions": "200 mg i.v. over 30 min, beginning 15 min before surgery", "method": "Blood samples were removed at the intervals indicated and serum was prepared and stored frozen at −20° C. Serum elastase activity was determined using a photometric assay."}, "Staphylococcus aureus": {"tested_on": "Staphylococcus aureus", "conditions": "cited from earlier work"}, "[6]": {"assay": "Phase I: plasma Elafin concentrations (ELISA) after single intravenous infusion in healthy male volunteers", "quoted_text": "Each dose was administered to 6 individuals. After Elafin administration blood samples were taken at the indicated times from each volunteer and the plasma prepared and frozen to −20° C. Elafin in the plasma samples was quantified using an ELISA."}, "[7]": {"assay": "Plasma Elafin levels (ELISA) after subcutaneous injection in a healthy human volunteer", "type": "in vivo", "conditions": "100 mg subcutaneously, n = 1", "method": "100 mg of Elafin physiological saline were injected subcutaneously into the abdomen of a healthy human volunteer. Blood samples were removed at the times indicated in FIG. 9 and plasma prepared and stored at −20° C. The plasma Elafin levels were measured using an ELISA."}, "human leukocyte elastase": {"biological_target": "T2, human leukocyte elastase (Homo sapiens, UniProt P08246)", "T2 sequence (P08246 30-267)": "T1 sequence (P08246 30-267)", "assay": "Inhibition of leukocyte elastase (Ki)", "type": "biochemical", "source_text": "The invention generally relates to novel uses of polypeptides comprising the sequence depicted in SEQ ID NO: 1 or homologue, derivatives, or fragments of the sequence depicted in SEQ ID NO: 1, for the treatment of medical conditions for which a use of […] has not yet been contemplated. […] Experiments for measuring the activity of leukocyte elastase and its inhibition can be conducted by the method described in European Patent EP 0 402 068. As used herein, the term “homologue” refers to peptides or polypeptides which share a substantial degree of homology on the amino acid level with the sequence of SEQ ID NO: 1 over a certain stretch of its primary structure. In particular, the term “homologue” relates to polypeptides having a sequence (or comprising such sequence) which differs from the sequence depicted in SEQ ID NO: 1 by the substitution (or deletion) of one or more single amino acids. Generally, any amino acid from the sequence depicted in SEQ ID NO: 1 can be deleted or substituted against another amino acid as long as the inhibitory activity of the polypeptide is not lost. Further polypeptides are also included which differ from the sequence of SEQ ID NO: 1 by the insertion of one or more additional amino acids. “One or more” in the above context always refers to 1-50, preferably 1-20, even more preferably 1-10, most preferably 1-5. […]"}, "CRP": {"tested_on": "CRP", "conditions": "200 mg i.v.; first postoperative day; versus placebo", "method": "Patients undergoing esophagectomy for esophagus carcinoma were administered either 200 mg Elafin in 250 mL physiological saline (verum) or 250 mL saline (placebo) i.v. over a period of 30 min beginning 15 min before the commencement of surgery. Serum was prepared from blood samples which were taken on admission and on the day after surgery. The serum levels of CRP were measured using a commercially available ELISA. (CRPL 3, cobas®, available from Roche/Hitachi)."}, "[8]": {"biological_target": "T3, leukocyte elastase activity in the serum (Homo sapiens, UniProt P08246)", "T3 construct": "from tissue; host or cells: human serum (ex vivo, after in vivo dosing of Elafin)", "T3 sequence (P08246 30-267)": "T1 sequence (P08246 30-267)", "assay": "Phase I: serum elastase activity after single intravenous infusion in healthy male volunteers", "type": "in vivo", "method": "In order to assess the potential pharmacological effect of administered Elafin the inhibition of leukocyte elastase activity in the serum was measured.\nThe data presented in FIG. 7 were obtained in a Phase I clinical trial.\nWithin each dosage group the median elastase activity is shown relative to the predose value at t=0 min."}, "IL-8": {"tested_on": "IL-8", "assay": "Serum IL-8 6 h after esophagectomy (ELISA)", "type": "in vivo, human", "conditions": "200 mg i.v.; 6 h postoperatively; versus placebo", "method": "Blood samples were taken 6 h after finishing surgery and serum was prepared. The serum level of IL-8 was measured using a commercially available ELISA, (“Immulite, IL-8”, available from Siemens Medical Solution Diagnostics)."}, "[9]": {"conditions": "rats, up to 100 mg/kg/day, 14 days continuous i.v. infusion"}}}
{"substance": "Elafin: Human anti-protease polypeptide of 57 amino acids, about 6 kDa (SEQ ID NO: 1); reversible inhibitor of neutrophil elastase and proteinase 3 (AQEPVKGPVSTKPGSCPIILIRCAMLNPPNRCLKDTDCPGIKKCCEGSCGMACFVPQ; listed as Homo sapiens)", "values": [{"measurement": "period of postoperative ICU care required", "setting": "[1]; compared with placebo", "result": "significant reduction"}, {"measurement": "reduction of necessity for intensive care", "setting": "[1]; meaning of 'significant reduction' (at least 25% or one day)", "result": "at least 25%"}, {"measurement": "HPLC (Elafin quantified)", "setting": "[2]; Control (room temperature)", "result": 108, "unit": "µg"}, {"measurement": "HPLC (Elafin quantified)", "setting": "[2]; Ethylene oxide sterilization", "result": 100, "unit": "µg"}, {"measurement": "HPLC (Elafin quantified)", "setting": "[2]; Heat sterilization", "result": 0, "unit": "µg"}, {"measurement": "diminution of postoperative increase in serum IL-6", "setting": "IL-6", "result": "about 80%"}, {"measurement": "half life estimated from plasma levels in esophagectomy patients", "setting": "[3]; 200 mg i.v. at the beginning of surgery", "result": "at most 2 h"}, {"measurement": "period of significant plasma Elafin concentrations after the end of the operation", "setting": "[3]; 200 mg i.v. over 30 min, beginning 15 min before surgery", "result": "up to 6 h"}, {"measurement": "inhibition of serum elastase activity", "setting": "serum elastase [4]", "result": "potent inhibition"}, {"measurement": "Inhibitory activity", "setting": "elastase; Control (room temperature)", "result": 100, "unit": "%"}, {"measurement": "Inhibitory activity", "setting": "elastase; Ethylene oxide sterilization", "result": 101, "unit": "%"}, {"measurement": "Inhibitory activity", "setting": "elastase; Heat sterilization", "result": "−19- %"}, {"measurement": "side effects", "setting": "rats; intravenously to rats", "result": "without any side effects"}, {"measurement": "body weight", "setting": "rats; [9]", "result": "Neither food consumption nor body weight was influenced"}, {"measurement": "clinical signs of haemolysis or cytotoxicity in skin, eyes, mucous membranes, lungs and circulation", "setting": "rats; [9]", "result": "no clinical signs of haemolysis or cytotoxicity were observed"}, {"measurement": "food consumption", "setting": "rats; [9]", "result": "Neither food consumption nor body weight was influenced"}, {"measurement": "mortality", "setting": "rats; [9]", "result": "No mortality"}, {"measurement": "kill Pseudomanae aeruginosa", "setting": "Pseudomanae aeruginosa", "result": "kill"}, {"measurement": "serum elastase activity during the period of surgery", "setting": "serum elastase [5]", "result": "markedly reduced"}, {"measurement": "serum elastase activity in the course of the subsequent 3 postoperative days", "setting": "serum elastase [5]", "result": "recovered to slightly less than the preoperative level"}, {"measurement": "kill Staphylococcus aureus", "setting": "Staphylococcus aureus", "result": "kill"}, {"measurement": "half-life of elafin in plasma", "setting": "[6]; on average", "result": 1.92, "unit": "h"}, {"measurement": "mode of elimination from plasma", "setting": "[6]; single i.v. infusion, healthy volunteers", "result": "eliminated in two first-order processes"}, {"measurement": "time of peak plasma concentration after administration", "setting": "[7]", "result": "about 60 min"}, {"measurement": "Ki", "setting": "human leukocyte elastase", "result": "~0.1", "unit": "nM"}, {"measurement": "diminution of postoperative increase in serum CRP", "setting": "CRP", "result": "about 70%"}, {"measurement": "Median t50% (duration of serum elastase inhibition to a threshold level of 50%)", "setting": "[8]; 20 mg i.v.", "result": 40, "unit": "min"}, {"measurement": "Median t50% (duration of serum elastase inhibition to a threshold level of 50%)", "setting": "[8]; 200 mg i.v.", "result": 480, "unit": "min"}, {"measurement": "Median t50% (duration of serum elastase inhibition to a threshold level of 50%)", "setting": "[8]; 400 mg i.v.", "result": 720, "unit": "min"}, {"measurement": "period of pharmacologically relevant elastase inhibition", "setting": "[8]; doses of 100-400 mg i.v.", "result": "up to 720 min"}, {"measurement": "inhibition of serum elastase", "setting": "[8]; single i.v. infusion over 30 min, various doses", "result": "rapid and potent inhibition"}, {"measurement": "diminution of postoperative increase in serum IL-8", "setting": "IL-8", "result": "about 70%"}]}
